Sequences and labels used below:
B1: Actin nucleation-promoting factor WAS (Homo sapiens), P42768 (parent)
chain: MSGGPMGGRPGGRGAPAVQQNIPSTLLQDHENQRLFEMLGRKCLTLATAVVQLYLALPPGAEHWTKEHCGAVCFVKDNPQKSYFIRLYGLQAGRLLWEQELYSQLVYSTPTPFFHTFAGDDCQAGLNFADEDEAQAFRALVQEKIQKRNQRQSGDRRQLPPPPTPANEERRGGLPPLPLHPGGDQGGPPVGPLSLGLATVDIQNPDITSSRYRGLPAPGPSPADKKRSGKKKISKADIGAPSGFKHVSHVGWDPQNGFDVNNLDPDLRSLFSRAGISEAQLTDAETSKLIYDFIEDQGGLEAVRQEMRRQEPLPPPPPPSRGGNQLPRPPIVGGNKGRSGPLPPVPLGIAPPPPTPRGPPPPGRGGPPPPPPPATGRSGPLPPPPPGAGGPPMPPPPPPPPPPPSSGNGPAPPPLPPALVPAGGLAPGGGRGALLDQIRQGIQLNKTPGAPESSALQPPPQSSEGLVGALMHVMQKRSRAIHSSDEGEDQAGDEDEDDEWDD

In the assay the parent is B1. The conditions noted are these: with wipf1_human WIPF1, O43516.
Sequence of wipf1_human WIPF1, O43516 (O43516 whole entry): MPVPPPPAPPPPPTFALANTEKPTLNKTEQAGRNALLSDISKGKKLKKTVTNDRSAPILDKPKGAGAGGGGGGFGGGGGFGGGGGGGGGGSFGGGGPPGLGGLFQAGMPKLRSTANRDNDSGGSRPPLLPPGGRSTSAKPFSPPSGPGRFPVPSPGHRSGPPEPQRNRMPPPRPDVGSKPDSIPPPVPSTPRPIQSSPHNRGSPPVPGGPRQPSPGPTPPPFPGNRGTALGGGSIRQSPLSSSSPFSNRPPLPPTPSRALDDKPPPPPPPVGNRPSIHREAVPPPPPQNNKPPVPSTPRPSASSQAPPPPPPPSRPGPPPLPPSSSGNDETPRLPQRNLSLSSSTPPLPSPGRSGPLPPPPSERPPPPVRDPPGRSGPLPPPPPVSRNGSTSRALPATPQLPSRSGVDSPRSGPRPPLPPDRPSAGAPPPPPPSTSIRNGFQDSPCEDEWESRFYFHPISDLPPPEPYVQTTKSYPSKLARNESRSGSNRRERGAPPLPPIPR
Regarding A134T, the “effect of a mutation on the interaction” value was “decreasing interaction”.
As for Y107C, the entry is “decreasing interaction”; as for R86H, “decreasing interaction”.

The values are drawn from IntAct's records for PubMed 10202051.
